Laboratory results as given in publication PMC5076530.

Legend:
[1] = target: human insulin-like growth factor type I receptor (human); assay: radioligand binding; competition with human 125I-IGF-I on human IGF-1R in membranes of mouse embryonic fibroblasts (IGF-1R knock-out, transfected with human IGF-1R); non-linear regression, one-site fit; Kd of 125I-IGF-I set to 0.2 nM
[2] = target: human insulin receptor isoform B (human); assay: radioligand binding; human IR-B in membranes of mouse embryonic fibroblasts (IGF-I receptor knock-out, solely expressing human IR-B); non-linear regression, one-site fit, depletion of free ligand taken into account
[3] = target: human insulin receptor isoform A (human); assay: radioligand binding; competition with human 125I-insulin on IR-A in membranes of human IM-9 lymphocytes; non-linear regression, one-site fit, depletion of free ligand taken into account; Kd of 125I-insulin set to 0.3 nM

| Substance | Kd [1] [nM] | Kd [2] [nM] | Kd [3] [nM] |
| --- | --- | --- | --- |
| IGF-II (recombinant, with an additional glycine at the N terminus) (ligand) | 2.29 | 43.7 | 3.03 |
| [N29,R34_GS,S39_PQ]IGF-II (ligand) | 3.19 | – | 19.9 |
| [N29,S39_PQ]IGF-II (ligand) | 1.33 | – | 16.8 |
| [N29]IGF-II (ligand) | 4.57 | 108 | 10.3 |
| [R34_GS,S39_PQ]IGF-II (ligand) | 5.68 | – | 23.4 |
| [R34_GS]IGF-II (ligand) | 4.13 | – | 15.4 |
| [S39_PQ]IGF-II (ligand) | 5 | – | 38 |
